This passage reports kcat/Km, Km and kcat results from patent US8357518B2, “Thermostable enzymes for the hydrolysis of mannan-containing polysaccharides” (The Board of Trustees of the University of Illinois, priority 2010, dated 2013).

Substrate in data set [1]: OC[C@H]1O[C@@H](O[C@H]2[C@H](O)[C@@H](O)[C@H](O[C@H]3[C@H](O)[C@@H](O)[C@H](O[C@H]4[C@H](O)[C@@H](O)C(O)O[C@@H]4CO)O[C@@H]3CO)O[C@@H]2CO)[C@H](O)[C@@H](O)[C@@H]1O
Put plainly: purified protein, by the assay type. The note with it: other: Man5B 3 nM, oligosaccharide 30 μM, citrate buffer 50 mM, pH 5.5, 5 min, triplicate.

Substrate in data set [2]: OC[C@H]1O[C@@H](O[C@H]2[C@H](O)[C@H](O)[C@H](O[C@H]3[C@H](O)[C@H](O)C(O)O[C@@H]3CO)O[C@@H]2CO)[C@@H](O)[C@@H](O)[C@@H]1O
Put plainly: purified protein, by the assay type. The note with it: other: Man5B 3 nM, oligosaccharide 30 μM, citrate buffer 50 mM, pH 5.5, 5 min, triplicate.

Substrate in data set [3]: OC[C@H]1O[C@@H](O[C@H]2[C@H](O)[C@H](O)[C@H](O[C@H]3[C@H](O)[C@H](O)[C@H](O[C@H]4[C@H](O)[C@H](O)[C@H](O[C@H]5[C@H](O)[C@H](O)[C@H](O[C@H]6[C@H](O)[C@H](O)C(O)O[C@@H]6CO)O[C@@H]5CO)O[C@@H]4CO)O[C@@H]3CO)O[C@@H]2CO)[C@@H](O)[C@@H](O)[C@@H]1O
Briefly: purified protein, by the assay type. The note with it: other: Man5B 3 nM, oligosaccharide 30 μM, citrate buffer 50 mM, pH 5.5, 5 min, triplicate.

Substrate in data set [4]: OC[C@H]1O[C@@H](O[C@H]2[C@H](O)[C@@H](O)[C@H](O[C@H]3[C@H](O)[C@@H](O)[C@H](O[C@H]4[C@H](O)[C@@H](O)[C@H](O[C@H]5[C@H](O)[C@@H](O)[C@H](O[C@H]6[C@H](O)[C@@H](O)C(O)O[C@@H]6CO)O[C@@H]5CO)O[C@@H]4CO)O[C@@H]3CO)O[C@@H]2CO)[C@H](O)[C@@H](O)[C@@H]1O
Put plainly: purified protein, by the assay type. The note with it: other: Man5B 3 nM, oligosaccharide 30 μM, citrate buffer 50 mM, pH 5.5, 5 min, triplicate.

Substrate in data set [5]: OC[C@H]1O[C@@H](O[C@H]2[C@H](O)[C@H](O)[C@H](O[C@H]3[C@H](O)[C@H](O)[C@H](O[C@H]4[C@H](O)[C@H](O)C(O)O[C@@H]4CO)O[C@@H]3CO)O[C@@H]2CO)[C@@H](O)[C@@H](O)[C@@H]1O
Briefly: purified protein, by the assay type. The note with it: other: Man5B 3 nM, oligosaccharide 30 μM, citrate buffer 50 mM, pH 5.5, 5 min, triplicate.

Substrate in data set [6]: O=[N+]([O-])c1ccc(O[C@@H]2O[C@H](CO)[C@@H](O[C@@H]3O[C@H](CO)[C@@H](O)[C@H](O)[C@H]3O)[C@H](O)[C@H]2O)cc1
Briefly: Kinetic properties with pNP-linked sugars (Man5B wild type). In kind it is biochemical, Caldanaerobius polysaccharolyticus. The note with it: other: wild type Man5B 5 nM, substrate 0.06 to 10 mM, 65° C., citrate buffer pH 5.5. As for the experimental part:
(§1) The plasmid constructs were then introduced into E. coli BL-21 CodonPlus (DE3) RIL competent cells by heat shock, and grown overnight in lysogeny broth (LB) agar medium supplemented with ampicillin (100 μg/mL) and chloramphenicol (50 μg/mL) at 37° C. After 12 h, single colonies were selected and used to inoculate fresh LB (10 mL) supplemented with the antibiotics above at the same concentrations, followed by culturing with aeration for 8 h at 37° C. The pre-cultures were then inoculated into fresh LB (1 L) supplemented with ampicillin and chloramphenicol and the cultures were incubated at 37° C. with vigorous aeration (225 rpm/min). The cultures were grown to an optical density of 0.3 at 600 nm, and the temperature was shifted to 16° C. and gene expression was induced by the addition of 0.1 mM isopropyl β-D-thiogalactopyranoside (IPTG). After 16 h of growth, the cells were harvested by centrifugation (4000×g, […], 4° C.), the cell pellets were then re-suspended in 30 mL lysis buffer (50 mM Tris-HCl, 300 mM NaCl, pH 7.0), and ruptured by two passages through an EmulsiFlex C-3 cell homogenizer from Avestin (Ottawa, Canada). The cell lysate was then clarified by centrifugation at 20,000×g for 30 min at 4° C. to remove cell debris. The lysate containing recombinant protein was then incubated at 65° C. for 30 min, and centrifuged at 20,000×g for 15 min at 4° C. to remove heat labile E. coli proteins. The recombinant proteins were then purified from the heat treated supernatant using the Talon Metal Affinity Resin according to the supplier's protocol, with the exception that Tris-based binding (50 mM Tris-HCl, 300 mM NaCl, pH 7.5), and elution (50 mM Tris-HCl, 300 mM NaCl, 250 mM Imidazole, pH 7.5) buffers were employed. Aliquots of eluted fractions were analyzed by sodium dodecyl sulfate-polyacrylamide gel electrophoresis (SDS-PAGE) and protein bands were visualized by staining with Coomassie brilliant blue G-250. Elution fractions were pooled and the proteins were then exchanged into protein storage buffer (50 mM Tris-HCl, 150 mM NaCl, pH 7.5) by three successive concentration and dilution cycles with Amicon Ultra-15 centrifugal filter units (Man5A-TM1, Man5A-TM2, 50,000 MWCO; Man5B,10,000 MWCO). The UV absorbances of the protein solutions were recorded at 280 nm using a Nanoprop 1000 from Thermo Scientific (Waltham, Mass.) and the protein concentrations were calculated using the following extinction coefficients: Man5A-TM1, ε280 nm=189 mM^−1 cm^−1; Man5A-TM2, ε280 nm=113 mM^−1 cm^−1; Man5B, ε280 nm=103 mM^−1 cm^−1.
(§2) Determination of kinetic properties for wild type and mutant Man5B with pNP-linked sugars. Kinetic properties of wild type and mutant Man5B were determined for pNP-β-D-mannopyranoside and pNP-β-D-cellobioside. The substrate concentrations ranged from 0.06 to 10 mM and reactions were performed at 65° C. in citrate buffer (50 mM sodium citrate, pH 5.5). The reactions were equilibrated to 65° C. using a thermostated Cary 300 UV-Vis spectrophotometer, and the reactions were initiated by the addition of wild type (5 nM, final concentration) or mutant (2 μM, final concentration) Man5B. The rate of pNP release was determined by continuously monitoring the absorbance at 400 nm. Initial rate data were then plotted against the substrate concentrations, and the values of the Michaelis-Menten constant (KM) and the maximum velocity (Vmax) were estimated from a nonlinear curve fit using GraphPad Prism v5.01 from GraphPad Software (San Diego, Calif.). The kcat was calculated as the quotient of the Vmax and the concentration of enzyme used in the reaction.
(§3) Next, to test whether the mutations introduced in Man5B had any effects on the catalytic activity of this enzyme, the catalytic parameters for the wild type and mutant enzymes were determined using pNP-β-D-cellobioside and pNP-β-D-mannopyranoside as substrates.

Substrate in data set [7]: O=[N+]([O-])c1ccc(O[C@@H]2O[C@H](CO)[C@@H](O)[C@H](O)[C@@H]2O)cc1
The description is as above. In kind it is biochemical, Caldanaerobius polysaccharolyticus. The note with it: other: wild type Man5B 5 nM, substrate 0.06 to 10 mM, 65° C., citrate buffer pH 5.5. As for the experimental part:
as §1, §2, §3

B1: Caldanaerobius polysaccharolyticus endo-β-mannanase Man5B, wild type, SEQ ID NO: 31 (Caldanaerobius polysaccharolyticus) (protein)
chain: MKKYGFNFQWMYVWEEGREPEPPDKKALDFLAETGFNFVRIPVDYRFWTRNFDYFNPDKKVFEYIDLYLRECSARNIHMCLNLHRAPGYCINRNDIERDNLWLDKRAQDGFVYQWELFAKRYKGVSSKFLSFDLVNEPPNIGQYGLTRENHASLIIRTVEAIRKIDPDREIVIDGLGGGNIAMPELAHLGVVHSGRGYQPMALTHYQASWWDGHKGLPEPYYPDLLWQGKVWNKDTLREYYKPWRDLQQKGVNVHIGEFGCFNKTSNDVAIRWFEDVLSLYKEFEWGYSLWNFKGPFGIVEHGRPGAKYEYYRGFKVDRELLDLLVENRV
Turning to B1, the kcat/Km (in general, the second-order rate constant that governs catalysis at low substrate concentration) was 1400 ± 200 M⁻¹ s⁻¹ in data set [1]; 270 ± 50 M⁻¹ s⁻¹ in data set [2]; “(2.7 ± 0.7) × 10^2 mM^−1 s^−1” in data set [3]; 43000 ± 3000 M⁻¹ s⁻¹ in data set [4]; 63000 ± 6000 M⁻¹ s⁻¹ in data set [5]; 25000 ± 2000 M⁻¹ s⁻¹ in data set [6]. Further, in data set [7], the kcat/Km worked out at 1600 ± 100 M⁻¹ s⁻¹. In addition, the results for the Michaelis constant (Km) result in data set [6] and in data set [7] were “(9.7 ± 1) × 10^−2 mM” and 26 ± 4 mM, respectively. For the same protein, the kcat – broadly, the number of substrate molecules converted per active site and unit of time at saturation – in data set [6] is 2.4 ± 0.1 s⁻¹; in data set [7], 42 ± 3 s⁻¹.
